From patent publication US20070134249A1 (GENITOPE, published 2007)

Key:
Assay in all cases: ELISA
Design in all cases: key: 0 = <0.5 OD, 1 = 0.5-1.0 OD, 4 = 1-4 OD
[1] = target: T1, 610
T1 construct: H3-23 K4-1; also called PIN610
From the text: (§1) Before specificity screening, all of the clonal immunogen-positive hybridoma supernatants were re-screened on the immunogen, a non-family member Id protein, and KLH, if animals were immunized with Id protein that has been conjugated KLH. As described above, this screen identifies HC-specific clones but not mAbs against the light chain constant region. Clones identified positive to the immunogen and KLH were […]. Those found positive to the immunogen but not to the non-family member Id protein or KLH were tittered on the immunogen. In addition to normalizing for different binding affinities and concentrations, each hybridoma supernatant was titered on the fully human form of the Id protein used as the immunogen(s) for the V regions. The titer or dilution resulting in an ELISA absorbance of 2.5 to 3 OD after 30 min. incubation time was then used. Hybridoma specificity was determined by screening against available Id proteins expressing the same HV and KV or LV as well as different HV, KV and LV. The final ELISA results are expressed as follows: 0 (<0.5 OD), 1 (0.5-1.0 OD), or 4 (1-4 OD). Positive hybridoma supernatants are categorized according to specificity: anti-Id, anti-constant region (HC, KC or LC), or V region (HV, KV, LV family or family member).
(§2) In general, the fully human Id protein or proteins containing the immunogen V regions were coated onto 96-well ELISA plates at 2.5-5 ug/mL in carbonate buffer pH 9.6 and incubated at 4° C. for up to 14 days. On the day of the ELISA, plates were brought to RT and blocked with Tris-Tween-20, pH 7.6 for 15-60 min. at RT. Following a NaCl and Triton X-100 wash, diluted hybridoma cell culture supernatants were incubated overnight at 4° C. Hybridoma supernatant dilutions ranged from 1:2 to 1:25 and were prepared in PBS with 5% BSA. Plates were washed and incubated with HRP-conjugated goat anti-mouse IgG-specific detecting antibody. A chromogenic substrate (TMB) was used to measure the amount of mouse antibody bound to each well. The reaction was stopped at or before 30 minutes with IN H2SO4 and plates were read immediately. Absorbency readings at 450 nm ranging between 0-4 OD and using Molecular Devices plate reader and SOFTMAX PRO software.

[2] = target: T2, 786
T2 construct: H3-7 K3-15; also called PIN786
From the text: as §1, §2

[3] = target: T3, 805
T3 construct: H3-7 K3-11; also called PIN805
From the text: as §1, §2

[4] = target: T4, 712
T4 construct: H3-23 K4-1; also called PIN712
From the text: as §1, §2

[5] = target: T5, 626
T5 construct: H5-51 K4-1; also called PIN626
From the text: as §1, §2

[6] = target: T6, 112
T6 construct: H4-39 K4-1; also called PIN112
From the text: as §1, §2

[7] = target: T7, 199
T7 construct: H3-7 K4-1; also called PIN199
From the text: as §1, §2

[8] = target: T8, 529
T8 construct: H3-48 K4-1; also called PIN529
From the text: as §1, §2

[9] = target: T9, 628
T9 construct: fully human Id protein; also called PIN628
T9 sequence (VH, as listed by the source, chain 1 of 2): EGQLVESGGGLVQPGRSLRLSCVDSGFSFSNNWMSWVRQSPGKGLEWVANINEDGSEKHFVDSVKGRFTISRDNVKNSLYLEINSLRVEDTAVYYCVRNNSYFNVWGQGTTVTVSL
T9 sequence (VL, as listed by the source, chain 2 of 2): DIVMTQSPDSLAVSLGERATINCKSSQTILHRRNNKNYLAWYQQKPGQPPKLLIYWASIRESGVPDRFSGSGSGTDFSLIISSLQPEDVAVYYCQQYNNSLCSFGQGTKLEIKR
From the text: as §1, §2

[10] = target: T10, 192
T10 construct: H5-51 K4-1; also called PIN192
From the text: as §1, §2

[11] = target: T11, 204
T11 construct: H3-15 K4-1; also called PIN204
From the text: as §1, §2

[12] = target: T12, 518
T12 construct: H4-59 K4-1; also called PIN518
From the text: as §1, §2

[13] = target: T13, 566
T13 construct: H3-73 K4-1; also called PIN566
From the text: as §1, §2

[14] = target: T14, 839
T14 construct: H3-23 K4-1; also called PIN839
From the text: as §1, §2

[15] = target: T15, 898
T15 construct: H3-15 K4-1; also called PIN898
From the text: as §1, §2

[16] = target: T16, 912
T16 construct: H3-23 K4-1; also called PIN912
From the text: as §1, §2

[17] = target: T17, 952
T17 construct: H3-66 K4-1; also called PIN952
From the text: as §1, §2

[18] = target: T18, 953
T18 construct: H5-51 K4-1; also called PIN953
From the text: as §1, §2

[19] = target: T19, 1014
T19 construct: H3-53 K4-1; also called PIN1014
From the text: as §1, §2

[20] = target: T20, 1145
T20 construct: H3-11 K4-1; also called PIN1145
From the text: as §1, §2

- grade [1]: 4
- grade [2]: 4
- grade [3]: 4
- grade [4]: 4
- grade [5]: 4
- grade [6]: 4
- grade [7]: 4
- grade [8]: 4
- grade [9]: 4
- grade [10]: 4
- grade [11]: 4
- grade [12]: 4
- grade [13]: 4
- grade [14]: 4
- grade [15]: 4
- grade [16]: 4
- grade [17]: 4
- grade [18]: 4
- grade [19]: 4
- grade [20]: 4
B1: mAb clone 12C3 (antibody, V domains shown)
VH: EVKLVESGGGLVQPGGSLSLSCAASGFTYTDYYMNWVRQPPGKALEWLALIRNKANGYTTEYSASLKGRFTISRDNSQSILYLQMNALRAEDSATYYCVRENINYYFDYWGQGTTLTVSS
VL: DIVLTQSPASLAVSLGQRATISCRASESVEYFGASLMQWYQQKSGQPPKLLIRAATNVESGVPARFSGSGSGTDFSLNIHPVEEDDIAMYFCQQSRKVPWTFGGGTKLEIKR
notes: Mouse hybridoma mAb, fusions 20/21 (PIN628 V regions)
